Literature values, collected in patent US20030092000.

What was measured:
Settings in all cases: method not stated
[1] = test system: FAD 1A (designed three-finger ZFP) (synthetic)
[2] = test system: FAD 1B (designed three-finger ZFP) (synthetic)
[3] = test system: FAD 4A (designed three-finger ZFP) (synthetic)
[4] = test system: FAD 4B (designed three-finger ZFP) (synthetic)
[5] = test system: FAD 2A (designed three-finger ZFP) (synthetic)
[6] = test system: FAD 3A (designed three-finger ZFP) (synthetic)
[7] = test system: FAD 3B (designed three-finger ZFP) (synthetic)
[8] = test system: FAD 5A (designed three-finger ZFP) (synthetic)

GAGGTAGAGG (double strand) [FAD 1 target]
Kd [1]: 10 nM | Kd [2]: 10 nM

GAGGTGGAAG (double strand) [FAD 4 target]
Kd [3]: 10 nM | Kd [4]: 2 nM

GTCGTGTGGA (double strand) [FAD 2 target]
Kd [5]: 100 nM

GTTGAGGAAG (double strand) [FAD 3 target]
Kd [6]: 100 nM | Kd [7]: 100 nM

TAGGTGGTGA (double strand) [FAD 5 target]
Kd [8]: 10 nM
